Results from US20220306744A1 (CRESCENDO BIOLOGICS, published 2022).
Blank lines part the entries; values can stand above or below the binder they belong to.

Assays:
[1] = target: T1, human PD-1 expressed on cells (CHO TREX human PD1 cell line, full-length human PD-1 sequence) (human, UniProt Q15116 21-288); experiment: FMAT: inhibition of human Fc tagged human PD-L1 (400 pM) binding to CHO human PD-1 cells
T1 construct: Also used for human PD-1 on Jurkat reporter cells, on PathHunter cells and on PHA-stimulated human CD4+ T cells; also called CHO human PD1 cells; CHO human PD-1 cells
Protocol: (§1) Purified VH were serially diluted in FMAT assay buffer and tested for binding to CHO human PD-1 cells as described above and for inhibition of human PD-L1/PD-L2 binding to CHO human PD-1 cells. All reagents and serially diluted VH were prepared in FMAT assay buffer. VH, buffer (total binding controls) or excess competitor (non-specific binding control) were incubated with 400 pM human Fc tagged human PD-L1 or 100 pM PDL-2, 4 nM anti human Fc-Alexa Fluor-488 and 2000 per well CHO human PD-1 DRAQ5 stained cells in a 384 well black clear-bottomed assay plates. Plates were incubated for 2 hours at room temperature then fluorescence measured in the FL2 (502 nm-537 nm) and FL5 (677-800 nm) channels on the Mirrorball plate reader (TTP) following excitation at 488 nm and 640 nm. Data was expressed as a % of the total binding control (i.e. % control) after subtraction of the background signal determined from the non-specific binding control wells. The results are shown in FIG. 5 and in Tables 8 and 9 below.

[2] = target: T1, human PD-1 expressed on cells (CHO TREX …); experiment: epitope competition assay on CHO human PD1 cells (labelled VH not specified) after 4 days in human serum
Protocol: (§2) Serum stability of VH and multivalent VH constructs was assessed by measurement of their activity following incubation for 0, 1, 4 or 7 days both in mouse (Sigma M5905) and human serum. […] Minimal loss of activity was observed following incubation with serum.

[3] = target: T2, recombinant human PD-1 Fc chimera (human, UniProt Q15116 25-167); experiment: SPR Biacore T200, single cycle kinetics, human PD-1-hu Fc amine coupled to CM5, 1:1 model
T2 construct: Bought protein (R&D 1086-PD in the HTRF assay); also called human PD-1-hu Fc; huPD-1Fc; not shown: human Fc
Protocol: Binding kinetics of certain humabodies binding to human PD-1-hu Fc were measured by surface plasmon resonance (SPR) technology using Biacore T200 instrument (GE Healthcare). Recombinant human PD-1-hu Fc was immobilized by standard amine coupling to CM5 sensors chip (GE Healthcare) using 0.1 mg/ml solution of antigen in 10 mM sodium acetate at pH 5.5. For the reference flow cell, a blank immobilisation was carried out. Single cycle kinetics assays were used to study the interaction, a five point, three-fold dilution series of each Humabody® VH was made with a top concentration of 30 nM. The binding kinetics were followed by flowing the Humabody® VH over the chip surface in HBS EP+ buffer at a flow rate of 30 μl/min. The contact time for each of the association steps was 180 seconds and the dissociation step was varied between 1200-3600 seconds. The data was fitted to a 1:1 binding model after double reference subtraction using the Biacore T200 Evaluation software.

[4] = target: T1, human PD-1 expressed on cells (CHO TREX …); experiment: epitope competition assay on CHO human PD1 cells (labelled VH not specified) after 1 day in mouse serum
Protocol: as §2

[5] = target: T1, human PD-1 expressed on cells (CHO TREX …); experiment: epitope competition assay on CHO human PD1 cells (labelled VH not specified) after 7 days in human serum
Protocol: as §2

[6] = target: T1, human PD-1 expressed on cells (CHO TREX …); experiment: cell-based or functional assay
[7] = target: T1, human PD-1 expressed on cells (CHO TREX …); experiment: epitope competition assay on CHO human PD1 cells (labelled VH not specified) after 0 days in mouse serum
Protocol: as §2

[8] = target: T1, human PD-1 expressed on cells (CHO TREX …); experiment: epitope competition assay on CHO human PD1 cells (labelled VH not specified) after 4 days in mouse serum
Protocol: as §2

[9] = target: T1, human PD-1 expressed on cells (CHO TREX …); experiment: epitope competition assay on CHO human PD1 cells (labelled VH not specified) after 7 days in mouse serum
Protocol: as §2

[10] = target: T1, human PD-1 expressed on cells (CHO TREX …); experiment: flow cytometry, PHA-stimulated human CD4+ T cells, Donor 1
Protocol: Binding of monovalent single domain antibodies and multivalent binding agents to T cells was measured using flow cytometry. Peripheral blood mononuclear cells (PBMCs) were isolated from human blood by density gradient centrifugation then CD4+ T cells purified using a negative selection isolation kit according to the manufacturer's protocol (Miltenyi Biotech cat no 130-096-533). T-cells were stimulated with 2.5 μg/ml PHA for 3 days in RPMI media supplemented with 10% FBS, 2 mM Glutamine, 1× Pen/Strep. Cells were transferred into 96 well plates (75000 per well), blocked for 10 mins with PBS/1% BSA, then incubated with serially diluted VH in staining buffer (PBS/1% BSA) for 1 hour at 4° C. Cells were washed with staining buffer by centrifugation then incubated with 10 μg/ml biotinylated Anti His antibody for 40 mins at 4° C. Cells were washed again then stained with Streptavidin Alexa Fluor-488 (10 μg/ml) and 1:5000 diluted Live Dead near IR stain (Molecular Probes cat no. L10119) for 30 mins at 4° C. After further washing cells were fixed and fluorescence measured by flow cytometry.

[11] = target: T1, human PD-1 expressed on cells (CHO TREX …); experiment: FMAT: inhibition of PDL-2 (100 pM) binding to CHO human PD-1 cells
Protocol: as §1

T1 sequence (Q15116 21-288): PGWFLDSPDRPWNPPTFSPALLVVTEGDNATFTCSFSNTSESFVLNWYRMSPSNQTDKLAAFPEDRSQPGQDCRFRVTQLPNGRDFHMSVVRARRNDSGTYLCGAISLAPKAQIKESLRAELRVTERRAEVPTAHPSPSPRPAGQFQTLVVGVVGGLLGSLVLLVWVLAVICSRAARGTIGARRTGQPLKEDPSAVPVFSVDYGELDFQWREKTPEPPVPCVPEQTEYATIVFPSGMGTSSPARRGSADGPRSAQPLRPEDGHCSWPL
T2 sequence (Q15116 25-167 limits assumed, stated change not applied): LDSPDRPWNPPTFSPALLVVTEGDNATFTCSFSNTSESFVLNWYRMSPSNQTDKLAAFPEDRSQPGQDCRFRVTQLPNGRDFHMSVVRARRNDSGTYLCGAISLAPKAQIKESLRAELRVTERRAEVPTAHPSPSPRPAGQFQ

- IC50 [1]: 1.45 nM
- IC50 [2]: 1.1 nM
- Kd [3]: 0.012 nM
- koff [3]: 6.5e-06 s⁻¹
- kon [3]: 510000 M⁻¹ s⁻¹
- IC50 [4]: 1.3 nM
- IC50 [5]: 1 nM
- EC50 (M), NFAT-Luciferase reporter gene assay [6]: 2e-09 M
- IC50 [7]: 1.2 nM
- IC50 [8]: 1.6 nM
- IC50 [9]: 1.8 nM
- EC50 [10]: 0.5 nM
- IC50 [11]: 1.9 nM
B1: 1.92b-4GS-1.39a (other)
chain: EVQLVESGGGLVKPGGSLRLSCAASGFTFSDESMTWMRQAPGKGLEWVSYISSGGGVKFYADSVKGRFTISRDNAKNSLYLQMNSLRAEDTAVYYCAREAPLRLGESPHDAFDISGQGTMVTVSSGGGGSGGGGSGGGGSGGGGSEVQLVESGGGLVQPGRSLRLSCAASGFTFDDYALHWVRQAPGKDLEWVSGISWNGGSYGYADSVKGRFTISRDNAKNSLYLQMNSLRAEDTALYYCVREKGPGLTGSTADYYGLDAWGQGTMVTVSS
notes: Biparatopic VH-linker-VH; built from its parts here because it is not clear whether 1112 is the protein or the nucleic acid

- IC50 [1]: 1.2 nM
- IC50 [2]: 1.1 nM
- Kd [3]: 0.0097 nM
- koff [3]: 4.3e-06 s⁻¹
- kon [3]: 440000 M⁻¹ s⁻¹
- IC50 [4]: 2 nM
- IC50 [5]: 1.1 nM
- EC50 (M), NFAT-Luciferase reporter gene assay [6]: 1.2e-09 M
- IC50 [7]: 1.7 nM
- IC50 [8]: 1.8 nM
- IC50 [9]: 2 nM
- EC50 [10]: 0.3 nM
- IC50 [11]: 1.6 nM
B2: 1.92b-4GS-1.62a (other)
chain: EVQLVESGGGLVKPGGSLRLSCAASGFTFSDESMTWMRQAPGKGLEWVSYISSGGGVKFYADSVKGRFTISRDNAKNSLYLQMNSLRAEDTAVYYCAREAPLRLGESPHDAFDISGQGTMVTVSSGGGGSGGGGSGGGGSGGGGSEVQLVESGGGVVRPGGSLRLSCAASGFTFDDYAMSWVRQAPGKGLEWVSGITWNAGSTGYADSVKGRFTISRDNAKNSLYLQMNSLRAEDTALYYCVRDKYSYAWSYDDFDIWGQGTMVTVSS
notes: Biparatopic VH-linker-VH; also called 1.92-4GS-1.62a; 1.92b-4gs-2.12a
